Measured values: paper PMC12469269 (2025)

B1: HIV-1 Nef protein (natural protein)
chain: MGGKWSKSSVVGWPTVRERMRRAEPAADGVGAASRDLEKHGAITSSNTAATNAACAWLEAQEEEEVGFPVTPQVPLRPMTYKAAVDLSHFLKEKGGLEGLIHSQRRQDILDLWIYHTQGYFPDWQNYTPGPGVRYPLTFGWCYKLVPVEPDKVEEANKGENTSLLHPVSLHGMDDPEREVLEWRFDSRLAFHHVARELHPEYFKNC

What was measured:
Test in all cases: SPR
Mortalin peptide #56 = Mortalin peptide #56 (UniProt P38646)
Mortalin peptide #62 = Mortalin peptide #62 (UniProt P38646)
[1] = target: T1, Recombinant Human GRP75/HSPA9B/Mortalin His Protein (human, UniProt P38646 47-679)
[2] = target: T2, Recombinant Human Vimentin Protein, CF (human, UniProt P08670 1-466)
[3] = target: T1, Recombinant Human GRP75/HSPA9B/Mortalin …; remark: listed apart in the source
[4] = target: T2, Recombinant Human Vimentin Protein, CF; remark: listed apart in the source

T1 sequence (P38646 47-679): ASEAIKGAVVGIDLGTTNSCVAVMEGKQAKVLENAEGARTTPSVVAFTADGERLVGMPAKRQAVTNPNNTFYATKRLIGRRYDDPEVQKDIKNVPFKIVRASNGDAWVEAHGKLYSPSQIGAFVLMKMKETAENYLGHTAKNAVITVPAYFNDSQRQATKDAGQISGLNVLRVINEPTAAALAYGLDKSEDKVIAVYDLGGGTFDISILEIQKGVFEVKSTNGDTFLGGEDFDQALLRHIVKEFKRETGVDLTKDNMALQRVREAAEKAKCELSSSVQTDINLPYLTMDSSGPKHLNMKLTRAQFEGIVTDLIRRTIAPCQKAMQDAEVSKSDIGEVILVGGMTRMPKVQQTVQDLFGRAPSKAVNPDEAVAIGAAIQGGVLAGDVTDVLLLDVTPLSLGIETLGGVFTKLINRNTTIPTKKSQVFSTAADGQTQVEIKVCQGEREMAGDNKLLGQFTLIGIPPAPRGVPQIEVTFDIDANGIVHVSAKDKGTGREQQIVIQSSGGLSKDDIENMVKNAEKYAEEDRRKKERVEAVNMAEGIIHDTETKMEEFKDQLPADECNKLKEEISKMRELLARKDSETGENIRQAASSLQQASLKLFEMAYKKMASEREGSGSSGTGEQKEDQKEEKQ
T2 sequence (P08670 whole entry): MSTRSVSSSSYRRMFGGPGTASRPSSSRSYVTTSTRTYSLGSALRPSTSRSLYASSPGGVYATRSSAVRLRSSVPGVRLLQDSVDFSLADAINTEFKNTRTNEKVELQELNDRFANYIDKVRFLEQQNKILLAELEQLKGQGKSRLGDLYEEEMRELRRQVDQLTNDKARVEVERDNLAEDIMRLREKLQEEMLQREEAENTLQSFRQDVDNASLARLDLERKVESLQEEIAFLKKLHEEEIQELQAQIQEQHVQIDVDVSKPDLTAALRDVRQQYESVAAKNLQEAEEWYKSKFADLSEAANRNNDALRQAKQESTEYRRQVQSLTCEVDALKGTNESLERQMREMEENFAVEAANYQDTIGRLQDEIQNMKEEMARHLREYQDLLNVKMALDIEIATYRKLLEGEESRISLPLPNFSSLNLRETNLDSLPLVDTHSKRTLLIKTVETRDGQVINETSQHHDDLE

Binder | Kd (Mortalin peptide #56) [µM] | koff (Mortalin peptide #56) [s⁻¹] | Kd (Mortalin peptide #62) [µM] | koff (Mortalin peptide #62) [s⁻¹] | koff [1] [s⁻¹] | koff [2] [s⁻¹] | Kd [3] [µM] | Kd [4] [µM]
B1 | 76.9 | 0.0285 | 1.9 | 0.0037 | 0.0226 | 0.000901 | – | –
VGFPV [SMRwt peptide] | – | – | – | – | 0.0152 | 0.0566 | 22.6 | 8.8
